The values below are quoted from earlier work in PMC7736282.

The data set addresses Lys175 (UniProt position 175, VASSLKWRCPF). Put plainly: NMR.

On to “VP39, cap-specific mRNA (nucleoside-2'-O-)-methyltransferase / poly(A) polymerase small subunit (Vaccinia virus)”, for which the pKa – broadly, the negative logarithm of the acid dissociation constant – is reported as 8.5.
